In paper PMC9482650, “Quantitative fragmentomics allow affinity mapping of interactomes” (Nature Communications, 2022):

T1: DVL3, Q92997
T1 sequence (Q92997 244-331, limits assumed, looked up): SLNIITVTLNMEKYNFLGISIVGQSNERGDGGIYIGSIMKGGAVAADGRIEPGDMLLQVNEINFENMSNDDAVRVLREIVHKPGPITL

T2: GRIP1_3, Q9Y3R0
T2 sequence (Q9Y3R0 247-346, limits assumed, looked up): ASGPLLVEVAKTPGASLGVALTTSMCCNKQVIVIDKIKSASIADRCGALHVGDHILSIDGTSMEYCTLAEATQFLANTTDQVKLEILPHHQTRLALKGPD

T3: GRIP1_5, Q9Y3R0
T3 sequence (Q9Y3R0 568-668, limits assumed, looked up): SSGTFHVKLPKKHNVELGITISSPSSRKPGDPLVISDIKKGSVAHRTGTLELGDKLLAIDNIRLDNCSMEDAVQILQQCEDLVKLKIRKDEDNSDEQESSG

T4: RHPN1, Q8TCX5
T4 sequence (Q8TCX5 508-602, limits assumed, looked up): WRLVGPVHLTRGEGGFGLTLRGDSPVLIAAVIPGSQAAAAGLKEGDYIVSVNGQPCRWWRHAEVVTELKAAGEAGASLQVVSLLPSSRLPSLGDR

T5: DFNB31_3, Q9P202
T5 sequence (Q9P202 811-907, limits assumed, looked up): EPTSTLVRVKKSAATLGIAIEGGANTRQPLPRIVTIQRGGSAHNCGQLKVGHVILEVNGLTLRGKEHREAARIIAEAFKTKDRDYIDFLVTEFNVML

T6: LIN7A, O14910
T6 sequence (O14910 103-200, limits assumed, looked up): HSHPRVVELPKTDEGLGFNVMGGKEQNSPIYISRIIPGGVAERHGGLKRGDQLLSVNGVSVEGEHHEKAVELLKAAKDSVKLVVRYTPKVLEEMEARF

T7: RADIL, Q96JH8
T7 sequence (Q96JH8 971-1071, limits assumed, looked up): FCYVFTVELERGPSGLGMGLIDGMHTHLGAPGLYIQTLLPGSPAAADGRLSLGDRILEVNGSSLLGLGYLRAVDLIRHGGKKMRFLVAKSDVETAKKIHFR

T8: RAPGEF6, Q8TEU7
T8 sequence (Q8TEU7 525-625, limits assumed, looked up): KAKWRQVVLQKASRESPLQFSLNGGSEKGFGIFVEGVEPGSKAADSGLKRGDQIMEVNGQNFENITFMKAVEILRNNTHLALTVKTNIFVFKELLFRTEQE

T9: GRIP1_2, Q9Y3R0
T9 sequence (Q9Y3R0 145-248, limits assumed, looked up): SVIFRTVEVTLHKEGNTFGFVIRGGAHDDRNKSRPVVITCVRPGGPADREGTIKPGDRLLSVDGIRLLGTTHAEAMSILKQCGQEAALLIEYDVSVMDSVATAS

T10: PDZRN3_1, Q9UPQ7
T10 sequence (Q9UPQ7 244-349, limits assumed, looked up): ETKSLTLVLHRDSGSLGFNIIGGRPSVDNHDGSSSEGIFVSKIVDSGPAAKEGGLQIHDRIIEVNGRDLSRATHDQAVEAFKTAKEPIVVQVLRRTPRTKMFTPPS


Key:
Assay in all cases: holdup assay
Set-up in all cases: key: below the threshold = too weak to quantify, mostly under pKd 3.1 to 4
Details in all cases: plain residues with an end cap or a label only (N-terminal biotin on a linker: ado-ado)
TJP2_1, Q9UDY2 = biological target: TJP2_1, Q9UDY2
Chain of TJP2_1, Q9UDY2 (Q9UDY2 24-128): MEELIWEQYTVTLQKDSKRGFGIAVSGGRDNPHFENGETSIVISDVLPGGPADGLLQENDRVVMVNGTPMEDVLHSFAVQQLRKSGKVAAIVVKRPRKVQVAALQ

NHERF4_4, Q86UT5 = biological target: NHERF4_4, Q86UT5
Chain of NHERF4_4, Q86UT5 (Q86UT5 464-550): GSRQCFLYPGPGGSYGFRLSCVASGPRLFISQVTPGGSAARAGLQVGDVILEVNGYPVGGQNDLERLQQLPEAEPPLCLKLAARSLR

DVL3, Q92997 = biological target: T1, DVL3, Q92997
GIPC2, Q8TF65 = biological target: GIPC2, Q8TF65
Chain of GIPC2, Q8TF65 (Q8TF65 112-203): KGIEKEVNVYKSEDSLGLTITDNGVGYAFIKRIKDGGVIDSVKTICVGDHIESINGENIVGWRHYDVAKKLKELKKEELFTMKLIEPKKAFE

Inadl_10, Q8NI35 = biological target: Inadl_10, Q8NI35
Chain of Inadl_10, Q8NI35 (Q8NI35 1673-1763): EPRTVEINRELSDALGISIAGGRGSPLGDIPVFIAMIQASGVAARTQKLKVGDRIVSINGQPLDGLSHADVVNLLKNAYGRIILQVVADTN

SCRIB_1, Q14160 = biological target: SCRIB_1, Q14160
Chain of SCRIB_1, Q14160 (Q14160 718-814): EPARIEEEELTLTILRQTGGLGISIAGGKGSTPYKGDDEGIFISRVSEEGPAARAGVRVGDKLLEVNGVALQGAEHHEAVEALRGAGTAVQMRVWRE

GORASP2, Q9H8Y8 = biological target: GORASP2, Q9H8Y8
LNX1_1, Q8TBB1 = biological target: LNX1_1, Q8TBB1
Chain of LNX1_1, Q8TBB1 (Q8TBB1 261-371): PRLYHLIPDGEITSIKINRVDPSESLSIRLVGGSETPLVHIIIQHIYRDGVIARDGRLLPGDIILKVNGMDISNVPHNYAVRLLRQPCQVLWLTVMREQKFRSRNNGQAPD

GRIP1_3, Q9Y3R0 = biological target: T2, GRIP1_3, Q9Y3R0
GRIP1_5, Q9Y3R0 = biological target: T3, GRIP1_5, Q9Y3R0
RHPN1, Q8TCX5 = biological target: T4, RHPN1, Q8TCX5
MAST2, Q6P0Q8 = biological target: MAST2, Q6P0Q8
Chain of MAST2, Q6P0Q8 (Q6P0Q8 1099-1202): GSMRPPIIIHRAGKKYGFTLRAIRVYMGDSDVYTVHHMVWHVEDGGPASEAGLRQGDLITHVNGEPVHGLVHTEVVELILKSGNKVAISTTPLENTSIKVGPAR

PDZRN4_1, Q6ZMN7 = biological target: PDZRN4_1, Q6ZMN7
Chain of PDZRN4_1, Q6ZMN7 (Q6ZMN7 213-318): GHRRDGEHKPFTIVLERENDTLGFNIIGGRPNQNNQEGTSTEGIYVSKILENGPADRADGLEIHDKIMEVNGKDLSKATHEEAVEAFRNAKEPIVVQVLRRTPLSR

DLG4_3, P78352 = biological target: DLG4_3, P78352
Chain of DLG4_3, P78352 (P78352 306-403): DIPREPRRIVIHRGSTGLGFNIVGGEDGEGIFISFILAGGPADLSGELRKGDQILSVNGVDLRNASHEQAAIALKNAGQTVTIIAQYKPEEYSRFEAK

HTRA1, Q92743 = biological target: HTRA1, Q92743
Chain of HTRA1, Q92743 (Q92743 360-477): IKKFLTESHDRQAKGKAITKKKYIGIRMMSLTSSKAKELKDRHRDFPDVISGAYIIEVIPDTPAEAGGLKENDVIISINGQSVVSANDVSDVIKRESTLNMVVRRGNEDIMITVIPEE

DFNB31_3, Q9P202 = biological target: T5, DFNB31_3, Q9P202
DLG4_2, P78352 = biological target: DLG4_2, P78352
Chain of DLG4_2, P78352 (P78352 155-259): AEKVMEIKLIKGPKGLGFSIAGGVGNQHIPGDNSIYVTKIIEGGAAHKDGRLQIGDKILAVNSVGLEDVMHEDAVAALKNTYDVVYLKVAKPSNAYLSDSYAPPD

LIN7A, O14910 = biological target: T6, LIN7A, O14910
GORASP1, Q9BQQ3 = biological target: GORASP1, Q9BQQ3
Chain of GORASP1, Q9BQQ3 (Q9BQQ3 1-208): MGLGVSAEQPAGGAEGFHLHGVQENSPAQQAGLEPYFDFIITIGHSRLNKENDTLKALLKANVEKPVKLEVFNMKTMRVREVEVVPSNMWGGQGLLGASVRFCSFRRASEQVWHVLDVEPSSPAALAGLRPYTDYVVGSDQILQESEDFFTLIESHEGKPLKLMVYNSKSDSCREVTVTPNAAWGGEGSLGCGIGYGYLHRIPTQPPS

PDLIM1, O00151 = biological target: PDLIM1, O00151
Chain of PDLIM1, O00151 (O00151 1-87): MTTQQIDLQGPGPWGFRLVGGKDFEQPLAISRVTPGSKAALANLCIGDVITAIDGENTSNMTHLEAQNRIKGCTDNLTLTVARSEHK

RADIL, Q96JH8 = biological target: T7, RADIL, Q96JH8
RAPGEF6, Q8TEU7 = biological target: T8, RAPGEF6, Q8TEU7
GRIP1_2, Q9Y3R0 = biological target: T9, GRIP1_2, Q9Y3R0
NHERF4_2, Q86UT5 = biological target: NHERF4_2, Q86UT5
Chain of NHERF4_2, Q86UT5 (Q86UT5 220-308): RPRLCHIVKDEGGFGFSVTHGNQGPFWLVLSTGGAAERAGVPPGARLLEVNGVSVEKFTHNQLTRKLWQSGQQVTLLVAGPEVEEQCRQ

MAGI1_1, Q96QZ7 = biological target: MAGI1_1, Q96QZ7
Chain of MAGI1_1, Q96QZ7 (Q96QZ7 1-106): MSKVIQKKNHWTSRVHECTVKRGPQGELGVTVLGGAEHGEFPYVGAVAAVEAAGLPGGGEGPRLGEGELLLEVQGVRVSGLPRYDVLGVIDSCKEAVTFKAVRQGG

PDZRN3_1, Q9UPQ7 = biological target: T10, PDZRN3_1, Q9UPQ7
LNX1_3, Q8TBB1 = biological target: LNX1_3, Q8TBB1
Chain of LNX1_3, Q8TBB1 (Q8TBB1 500-596): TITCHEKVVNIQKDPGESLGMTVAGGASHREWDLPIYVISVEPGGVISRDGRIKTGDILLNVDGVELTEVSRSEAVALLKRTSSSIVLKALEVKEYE

Binder	pKd (TJP2_1, Q9UDY2)	pKd (NHERF4_4, Q86UT5)	pKd (DVL3, Q92997)	pKd (GIPC2, Q8TF65)	pKd (Inadl_10, Q8NI35)	pKd (SCRIB_1, Q14160)	pKd (GORASP2, Q9H8Y8)	pKd (LNX1_1, Q8TBB1)	pKd (GRIP1_3, Q9Y3R0)	pKd (GRIP1_5, Q9Y3R0)	pKd (RHPN1, Q8TCX5)	pKd (MAST2, Q6P0Q8)	pKd (PDZRN4_1, Q6ZMN7)	pKd (DLG4_3, P78352)	pKd (HTRA1, Q92743)	pKd (DFNB31_3, Q9P202)	pKd (DLG4_2, P78352)	pKd (LIN7A, O14910)	pKd (GORASP1, Q9BQQ3)	pKd (PDLIM1, O00151)	also measured
TLPRKRMSSI [GPRC6A, Q5T6X5]	below the threshold	3.88	below the threshold	below the threshold	below the threshold	below the threshold	below the threshold	3.78	below the threshold	below the threshold	below the threshold	4.82	below the threshold	below the threshold	below the threshold	below the threshold	below the threshold	below the threshold	below the threshold	below the threshold	pKd (RADIL, Q96JH8): below the threshold; pKd (RAPGEF6, Q8TEU7): below the threshold; pKd (GRIP1_2, Q9Y3R0): below the threshold; pKd (NHERF4_2, Q86UT5): below the threshold; pKd (MAGI1_1, Q96QZ7): below the threshold; pKd (PDZRN3_1, Q9UPQ7): below the threshold; pKd (LNX1_3, Q8TBB1): below the threshold
TSSMRGMDAV [RSRC2, Q7L4I2]	below the threshold	3.82	below the threshold	below the threshold	below the threshold	below the threshold	below the threshold	below the threshold	below the threshold	below the threshold	below the threshold	below the threshold	below the threshold	below the threshold	below the threshold	below the threshold	below the threshold	below the threshold	below the threshold	below the threshold	pKd (RADIL, Q96JH8): below the threshold; pKd (RAPGEF6, Q8TEU7): below the threshold; pKd (GRIP1_2, Q9Y3R0): below the threshold; pKd (NHERF4_2, Q86UT5): below the threshold; pKd (MAGI1_1, Q96QZ7): below the threshold; pKd (PDZRN3_1, Q9UPQ7): below the threshold; pKd (LNX1_3, Q8TBB1): below the threshold
